In this test the target is T1, Fc-APRIL (UniProt O75888 105-250, limits assumed).
T1 construct: also called control protein Fc-APRIL; not shown: Fc portion; not described for this construct
T1 sequence (looked up): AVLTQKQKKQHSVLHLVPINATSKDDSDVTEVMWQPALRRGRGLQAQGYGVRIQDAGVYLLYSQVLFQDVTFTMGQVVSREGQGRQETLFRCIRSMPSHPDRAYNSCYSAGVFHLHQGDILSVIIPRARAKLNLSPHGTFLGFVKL
Briefly: western blot under reducing conditions.

B1: mAbEDA1-EctoD3 (antibody, mouse IgG1, V domains shown)
VH: QVQLHQSGAELARPGASVKLSCKASGYTFTSYGISWVKQRTGQGLEWIGEVYPRSGDTYYHDYFEGKATLTADKSSSTAYMELRSLTSEDSAVYFCARGDYADVWGTGTTVTVSS
VL: DIVLTQSPASLAVSLGQRATISCRASKSVSTFGNSYMLWYQQKPGQPPKLLIYLASNLESGVPARFSGSGSGTDFTLNIHPVEEEDAATYYCQNSRELPYTFGGGTKLEIKR
notes: also called EctoD3-biotin; EctoD3-biot
On to B1, for which the binding result was “no binding”.

These data come from patent publication US20160075789A1 (EDIMER PHARMACEUTICALS, published 2016).
